In PMC3958346, “Clearance Kinetics and Matrix Binding Partners of the Receptor for Advanced Glycation End Products” (PLoS ONE, 2014) one finds Kd, koff and kon data, which are given here for 1 molecule.

Where “and” joins values, the source holds several entries; their conditions need not be identical. Identical values can stand only once.

What all share (assay): BLI; ForteBIO Octet; purified mouse sRAGE conjugated to amine-reactive sensor tips, matrix protein in solution in varying concentrations; 1800 s association, dissociation in PBS; fit to the 1:1 Langmuir model; constants printed for each analyte concentration
Common to all, as to conditions: both partners purified
For orientation: BLI is a label-free optical method that tracks binding on a fibre tip over time.

The target of assay [1] is Collagen I (Sigma product, species and catalogue number not printed (could be rat or bovine). Natural alpha1(I)2 alpha2(I) heterotrimer taken by convention, propeptides removed; hydroxyproline, hydroxylysine, gly).
For assay [2], the target named is Laminin.
Assay [3] addresses Collagen IV (Sigma product, species and catalogue number not printed (human placenta or mouse EHS are both likely). Common alpha1(IV)2 alpha2(IV) heterotrimer taken by convention, 7S domain kept; hydroxyproline, h).

B1: Mouse soluble RAGE (soluble receptor for advanced glycation end products) (natural protein, UniProt Q62151-1 22-330, looked up)
chain: GGQNITARIGEPLVLSCKGAPKKPPQQLEWKLNTGRTEAWKVLSPQGGPWDSVARILPNGSLLLPATGIVDEGTFRCRATNRRGKEVKSNYRVRVYQIPGKPEIVDPASELTASVPNKVGTCVSEGSYPAGTLSWHLDGKLLIPDGKETLVKEETRRHPETGLFTLRSELTVIPTQGGTHPTFSCSFSLGLPRRRPLNTAPIQLRVREPGPPEGIQLLVEPEGGIVAPGGTVTLTCAISAQPPPQVHWIKDGAPLPLAPSPVLLLPEVGHEDEGTYSCVATHPSHGPQESPPVSIRVTETGDEGPAEGS
notes: Mouse soluble RAGE, residues 22-330, signal peptide cleaved off; mass 35742.30 Da; mouse membrane RAGE has a published length of 402 (NP_031451.2); Native protein from tissue; Coupled to amine-reactive sensor tips in one orientation, in solution in the other; also called sRAGE; mouse sRAGE; source: endotoxin removed with Detoxi-Gel polymyxin B resin
The term Kd denotes the equilibrium constant for the complex coming apart. Low readings indicate higher affinity, high ones lower affinity. As usually defined, the koff is the first-order rate constant of dissociation. Read a high koff as fast dissociation. Usually kon stands for a measure of how fast the partners come together. In the case of B1, the Kd was 3.51 nM and 1.62 nM and 1.84 nM in assay [1]; 2.57 nM and 3.59 nM and 4.81 nM in assay [3]. For the same molecule, the koff was 0.000191 s⁻¹ and 0.000102 s⁻¹ and 8.02e-05 s⁻¹ and 0.000108 s⁻¹ in assay [2]; 6.26e-05 s⁻¹ and 7.72e-05 s⁻¹ and 8.1e-05 s⁻¹ in assay [3]. Also, the kon was 75400 M⁻¹ s⁻¹ and 106000 M⁻¹ s⁻¹ and 136000 M⁻¹ s⁻¹ and 171000 M⁻¹ s⁻¹ in assay [2]; 24400 M⁻¹ s⁻¹ and 21500 M⁻¹ s⁻¹ and 16700 M⁻¹ s⁻¹ in assay [3].
